Square brackets hold non-standard residues; d marks the D form. Primed or numbered codes have the meaning given here. * marks the point of attachment. 10Ca = carbamate linkage conjugating the peptide-PEG to paclitaxel at C10; PEG(13) = PEG13 linker; Piv = CC(C)(C)C(=O)*; PXL = paclitaxel
Biological target: Human Akt kinase (Upstate #14-276) (human), P31749
Assay: cell-based or functional assay

Human Akt kinase (Upstate #14-276) (human), P31749, sequence (P31749 whole entry): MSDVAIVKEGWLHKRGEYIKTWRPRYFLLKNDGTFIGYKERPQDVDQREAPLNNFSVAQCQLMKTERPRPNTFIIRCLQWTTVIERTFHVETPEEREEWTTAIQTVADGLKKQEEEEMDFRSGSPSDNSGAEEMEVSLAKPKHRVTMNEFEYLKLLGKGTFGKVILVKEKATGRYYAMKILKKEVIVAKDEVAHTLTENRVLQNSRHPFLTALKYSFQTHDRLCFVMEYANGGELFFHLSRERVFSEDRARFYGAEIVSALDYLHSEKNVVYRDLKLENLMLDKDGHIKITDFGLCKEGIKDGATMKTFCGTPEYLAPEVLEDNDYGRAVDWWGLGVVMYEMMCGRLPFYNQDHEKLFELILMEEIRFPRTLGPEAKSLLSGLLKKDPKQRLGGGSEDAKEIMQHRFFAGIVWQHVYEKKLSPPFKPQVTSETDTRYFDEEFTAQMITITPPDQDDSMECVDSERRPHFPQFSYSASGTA

Ave. Akt Kinase Act. (% of parent peptide activity): 0
Binder: Piv-GRPRTS[dS]FAEG-{PEG(13)-10Ca-PXL} [Pv-GRPRTSsFAEG-PEG(13)-10Ca-PXL]
